Experimental findings from publication PMC10838023 (Molecular microbiology, 2023) are described below.

The data set “SEC” deals with the molecule itself. The data set is described as follows: SEC. (SEC sorts molecules by how far they enter the pores of the column.)
The target in the next data set is T1, GfcR-StrepII (Haloferax volcanii (expressed in H26), UniProt Q8NKQ2 1-210).
T1 sequence: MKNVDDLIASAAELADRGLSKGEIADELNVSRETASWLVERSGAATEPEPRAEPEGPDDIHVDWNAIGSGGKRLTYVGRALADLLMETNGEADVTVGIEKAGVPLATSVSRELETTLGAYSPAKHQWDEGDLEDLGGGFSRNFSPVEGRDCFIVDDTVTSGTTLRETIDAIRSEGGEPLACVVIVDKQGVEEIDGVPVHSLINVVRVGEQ
As to the kind of experiment: EMSA. (A gel shift assay detects complexes by their altered migration in electrophoresis.)

By stoichiometry N is commonly meant the number of molecules, sites or subunits per partner or assembly.

B1: GfcR-StrepII (glucose and fructose catabolism regulator GfcR of Haloferax volcanii with a C-terminal StrepII tag) (natural protein, UniProt Q8NKQ2 1-210, looked up)
chain: MKNVDDLIASAAELADRGLSKGEIADELNVSRETASWLVERSGAATEPEPRAEPEGPDDIHVDWNAIGSGGKRLTYVGRALADLLMETNGEADVTVGIEKAGVPLATSVSRELETTLGAYSPAKHQWDEGDLEDLGGGFSRNFSPVEGRDCFIVDDTVTSGTTLRETIDAIRSEGGEPLACVVIVDKQGVEEIDGVPVHSLINVVRVGEQ
For the molecule B1, the “stoichiometry N” value in the data set “SEC” is 4.

B2: PptfC (dsDNA)
DNA 1: GGACCTCGAAGACGTGCTGACGAACGAAACGCACGTCGAGGTGACGACCGTTCGGACCCGGTGACTCTCGGATGAACGTTTGTTAACGACCGAAACACGCAGTAACGTTCATATTCGAAAGGGTTTTTGAGCACATTTGCGTACGTTCTTTCGTAGGGGTGGCAACACTATG
DNA 2: CATAGTGTTGCCACCCCTACGAAAGAACGTACGCAAATGTGCTCAAAAACCCTTTCGAATATGAACGTTACTGCGTGTTTCGGTCGTTAACAAACGTTCATCCGAGAGTCACCGGGTCCGAACGGTCGTCACCTCGACGTGCGTTTCGTTCGTCAGCACGTCTTCGAGGTCC
Take B2: the binding result in the data set with GfcR-StrepII is “binds”.
